{"source": "the RNAGym collection of RNA variant scans (doi:10.7554/elife.90254)", "parents": {"B1": {"name": "LINE1-full (parent)", "chain": "UACGUAGGUGGUUUUCCCCUGAUAGUGCUAAGGGGGCCUGGAAGUUUGGACUGGGCAGAGCUCAACACAGCGUGGCAAAGUGGCUGUGGCUAGACUGCCUCUCUGGAUUCCUCGUCACUCAGCAGGGCAUCUCUGAGAGAAAUGCC"}}}
{"variants_of": "B1", "test": "self-cleavage, relative activity (ratio to wild type); higher = more cleavage; in vitro, sequencing; the parent is a self-cleaving ribozyme"}
{"variant": "UACGUAGGUGGUUUUCCCCUGAUAGUGCUAAGGGGGCCUGGAAGUUUGGGCUGGGCAGAGCUCAACACAGCGUGGCAAAGUGGCUGUGGCUAGACUGCCUCUCUGGACUCCUCGUCACUCAGCAGGGCAUCUCUGAGAGAAAUGCC", "self-cleavage": 1.2}
{"variant": "UACGUAGGUGGUUUUCCCCUGAUAGUGCUAAGGGGGCCUGGAAGUUUGGACUAGGCAGAGCUCAACACAGCGUGGCAAAGUGGCUGUGGCUAGACUGCCUCUCUGGAUUCCUCGACACUCAGCAGGGCAUCUCUGAGAGAAAUGCC", "self-cleavage": 1.31}
{"variant": "UACGUAGGUGGUUUCCCCCUGAUAGUGCUAAGGGGGCCUGGAAGUUUGGACUGGGCAGAGCUCAACACAGCGGGGCAAAGUGGCUGUGGCUAGACUGCCUCUCUGGAUUCCUCGUCACUCAGCAGGGCAUCUCUGAGAGAAAUGCC", "self-cleavage": 1.18}
{"variant": "UACGUAGGUGGUUUUCCCCUGAUAGUGCUAAGGGGGCCUGGAAGUUUGGACUGGGCAGAGCUCAGCACAGCGUGGCAAAGUGGCUGUGGCUAGACUGCCUCUCUGGAUUCCUCGUCACUCAGCUGGGCAUCUCUGAGAGAAAUGCC", "self-cleavage": 0.04}
{"variant": "UACGUAGGUGGUUUUCCCCUGAUAGUGCUAAGGGGGCCUGGAAGUUUGGACUGGGCAGAGCUCAACACAGCGUGGCAAAGUGGCUGUGGCUAGACUGCCUCUCUGGAUUCCUCGUCACUCAGCAGGGCAUCUCUGAGGGCAAUGCC", "self-cleavage": 1.8}
{"variant": "UACGUAGGUGGUUUUCCCCUGAUAGUGCUAAGGGGGCCUGGAAGUUUGGACUGGGCAGAGCUCAACUCAGCGUGGCAAAGUGGCUGUGGCUAGUCUGCCUCUCUGGAUUCCUCGUCACUCAGCAGGGCAUCUCUGAGAGAAAUGCC", "self-cleavage": 0.05}
{"variant": "UACGUAGGUGAUUUUCCCCUGAUAGUGCUAAGGGGGCCUGGAAGUUUGGACUGGGCAGAGCUCUACACAGCGUGGCAAAGUGGCUGUGGCUAGACUGCCUCUCUGGAUUCCUCGUCACUCAGCAGGGCAUCUCUGAGAGAAAUGCC", "self-cleavage": 0.3}
{"variant": "UACGUAGGUGGUUUUCCCCUGAUCGUGCUAAGGGGGCCUGGAAGUUUGGACUGGGCAGAGCUCAACACAGCGUGGCAAAGUGGCUGUGGCUAGACUGCCUCUCUGGAUUCCUCGUCACUCAGCAGGGCAUCUCUGAGAGGAAUGCC", "self-cleavage": 1.15}
{"variant": "UACGUAGGUGGUUUUCCCCUGAUAGUGCUAAGGGGGCCUGGAUGUUUGGACUGGGCAGAGCUCAACACAGCGUGGCAAAGUGGCUGUGGCUAGACUGCCUCUCUGGAUUCCUCGUCACUCAGCAGGGCAUCUCUGAGGGAAAUGCC", "self-cleavage": 0.83}
{"variant": "UACGUAGGUGGUUUUCCCCUGAUAGUGCUAAGGGGGCCUGGAAGUUUGGACUGGGCAGAGCUCAACACAGCGUGGCAAAGUGGCUGUGGCUAGACUGCCUCUCUGGAUUCCUCGCCACUCCGCAGGGCAUCUCUGAGAGAAAUGCC", "self-cleavage": 1.66}
{"variant": "UACGUAGGUGGUUUUCCCCUGAUAGUGCUAAGGGGGCCUGGAAGUAUGGACUGGGCAGAGCUCAACUCAGCGUGGCAAAGUGGCUGUGGCUAGACUGCCUCUCUGGAUUCCUCGUCACUCAGCAGGGCAUCUCUGAGAGAAAUGCC", "self-cleavage": 0.1}
{"variant": "UACGUAGGUGGUUUUCCCCUGAUAGUGCUAAGGGGGCCUUGAAGUUUGGACAGGGCAGAGCUCAACACAGCGUGGCAAAGUGGCUGUGGCUAGACUGCCUCUCUGGAUUCCUCGUCACUCAGCAGGGCAUCUCUGAGAGAAAUGCC", "self-cleavage": 0.99}
{"variant": "UACGUAGGUGGUUUUCCCCUGAUAGUGCUAAGGGGGCCUGGAAGUUUGGACUGGGCAGAGCUCAACACAGCGUGGCAAAGUGGCUGUGGCUAGACUGCCUCUCUGGAUUCAUCGUCACUCAGCAGGGCAUCUCUGAGAGAGAUGCC", "self-cleavage": 1.03}
{"variant": "UACGUAGGUGGUUUUCCCCUGAUAGUGCUAAGGGGGCCUGGAAGUUUGGACUGGGCAGAGCUCAACACAGCGUGGCAAAGUGGCUGUGGCUAGACAGCCUCUCAGGAUUCCUCGUCACUCAGCAGGGCAUCUCUGAGAGAAAUGCC", "self-cleavage": 0.07}
{"variant": "UACGUAGGUGGUUUUCCCCUGAUAGUGCUAAGGGGGCCUGGAAGUUUGGACUGGGCAGAGCUCAACACAGCGUGGCAAAGUGGCUGUGGCUAGACUGCCUCUCUGGAUUCCUCGUCACUCAGGAGGGCAUCUCUGAGAGUAAUGCC", "self-cleavage": 1.27}
{"variant": "UACGUAGGUGGUUUUCCCCUGAUAGUGCUAAGGGGGCCUGGGAGUUUGGACUGGGCAAAGCUCAACACAGCGUGGCAAAGUGGCUGUGGCUAGACUGCCUCUCUGGAUUCCUCGUCACUCAGCAGGGCAUCUCUGAGAGAAAUGCC", "self-cleavage": 0}
{"variant": "UCCGUAGGUGGUUUUCCCCUGAUAGUGCUAAGGGGGCCAGGAAGUUUGGACUGGGCAGAGCUCAACACAGCGUGGCAAAGUGGCUGUGGCUAGACUGCCUCUCUGGAUUCCUCGUCACUCAGCAGGGCAUCUCUGAGAGAAAUGCC", "self-cleavage": 1.3}
{"variant": "UACGUAGGUGGUUUUCCCCUGAUAGUGCUGAGGGGGCCUGGAAGAUUGGACUGGGCAGAGCUCAACACAGCGUGGCAAAGUGGCUGUGGCUAGACUGCCUCUCUGGAUUCCUCGUCACUCAGCAGGGCAUCUCUGAGAGAAAUGCC", "self-cleavage": 1.53}
{"variant": "UACGUAGGAGGUUUUCCCCUGAUAGUGCUAAGGGGGCCUGGAAGUUUGGACUGGGCAGAGCUCAACACAGCGUAGCAAAGUGGCUGUGGCUAGACUGCCUCUCUGGAUUCCUCGUCACUCAGCAGGGCAUCUCUGAGAGAAAUGCC", "self-cleavage": 1.09}
